Columns and labels:
Assay in all cases: cell-based or functional assay
[1] = target: HA of wild type A/Shanghai/1/2013 (H7N9) virus (influenza A virus A/Shanghai/1/2013 …)
[2] = target: HA of A/California/04/2009 (H1N1) virus (influenza A virus A/California/04/2009 …)
[3] = target: HA of A/chicken/Jalisco/12283/12 (H7N3) virus (influenza A virus …)

B1: 045-051310-2B06 (antibody, V domains shown)
VH: QVQLVQSGPEMKKPGASVKVSCKTSGYRFTRYGISWVRQAPGRGLEWLGWISAYSGDTYYGQKFQDRVTMTTDRATSTAYMELRNLGSDDSAVYFCARDHVQGEVSIYYYAMDVWGEGTTVTVSS
VL: EIVLTQSPATLSLSPGERVTLSCRASESVGNKLAWFQQRPGQAPRLLIYNASNRATDIPARFSGSGSGTDFTLTISSLQPEDFAVYYCQQRGTWPRGLITFGQGTRLEIK
- PRNT50 (plaque reduction assay) [1]: 19 µg/mL
- PRNT50 (plaque reduction assay) [2]: 5.5 µg/mL
- PRNT50 (plaque reduction assay) [3]: 18 µg/mL

Source: US20170360931A1 (UNIVERSITY OF CHICAGO, published 2017)
